Assay results taken from patent US20140371080.

Legend:
[1] = target: EGFP-mOrange fusion (Aequorea victoria / Discosoma sp. (engineered)?) (UniProt P42212); conditions: fluorescence imaging of halted RNA clusters on Illumina GAIIx; 1xPBS, 5 mM MgCl2, 0.01% Tween-20, room temp; published 5.1 nM
[2] = test system: EGFP (Aequorea victoria (engineered)?); conditions: CITED Shui et al. 2012; p76 states 5 and 15 nM by ITC and EMSA respectively; cited from earlier work

GFP aptamer (canonical, GFPapt)
Kd [1]: 6 nM | Kd [2]: 5.1 nM
